Experimental findings from patent US20200002421A1 (AbbVie / Abbott, published 2020) are described below.

Numbering of substitutions follows the chain as printed.

To fix the notation:
T1: hB7-H3 (ELISA antigen of Tables 17 and 20) (human, UniProt Q5ZPR3 29-466, limits assumed)
T1 sequence: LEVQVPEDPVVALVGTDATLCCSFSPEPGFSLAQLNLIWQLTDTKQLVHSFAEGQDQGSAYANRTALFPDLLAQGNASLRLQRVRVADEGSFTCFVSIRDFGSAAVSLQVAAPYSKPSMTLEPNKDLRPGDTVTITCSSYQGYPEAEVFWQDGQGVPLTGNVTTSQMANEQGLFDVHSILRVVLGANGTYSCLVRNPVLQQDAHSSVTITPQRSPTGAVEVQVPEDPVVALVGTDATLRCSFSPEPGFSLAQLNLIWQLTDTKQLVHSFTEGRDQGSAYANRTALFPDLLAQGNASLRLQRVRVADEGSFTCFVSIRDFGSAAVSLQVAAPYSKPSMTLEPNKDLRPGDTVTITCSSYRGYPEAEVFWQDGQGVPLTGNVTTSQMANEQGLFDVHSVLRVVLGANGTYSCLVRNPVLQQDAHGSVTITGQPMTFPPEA

T2: Human full length B7-H3 (human, UniProt Q5ZPR3 29-534)
T2 construct: on 3T12 transfectants, NCI-H1650 and other cells; also called huB7-H3; hu B7-H3
T2 sequence: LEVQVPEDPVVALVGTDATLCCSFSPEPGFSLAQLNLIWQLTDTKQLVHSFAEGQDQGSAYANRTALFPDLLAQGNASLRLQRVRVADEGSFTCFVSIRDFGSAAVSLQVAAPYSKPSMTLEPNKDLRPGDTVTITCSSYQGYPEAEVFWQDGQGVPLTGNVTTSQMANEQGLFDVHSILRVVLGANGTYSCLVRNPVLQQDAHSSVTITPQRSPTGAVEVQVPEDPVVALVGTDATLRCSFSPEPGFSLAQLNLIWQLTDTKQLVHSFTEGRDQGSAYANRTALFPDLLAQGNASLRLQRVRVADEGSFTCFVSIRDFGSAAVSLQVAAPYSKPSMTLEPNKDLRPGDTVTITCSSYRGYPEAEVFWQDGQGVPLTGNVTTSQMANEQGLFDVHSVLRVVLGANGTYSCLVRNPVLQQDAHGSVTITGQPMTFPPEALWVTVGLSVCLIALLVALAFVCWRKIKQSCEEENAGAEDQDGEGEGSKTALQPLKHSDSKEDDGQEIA

B1: huAb13v5 (antibody, V domains shown)
VH: EVQLQESGPGLVKPSETLSLTCAVTGYSITSGYSWHWIRQFPGNGLEWMGYIHSSGSTNYNPSLKSRISISRDTSKNQFFLKLSSVTAADTAVYYCAGYDDYFEYWGQGTTVTVSS
VL: DIQMTQSPSSLSASVGDRVTITCKASQNVGFNVAWYQQKPGKAPKLLIYSASYRYSGVPSRFSGSGSGTDFTLTISSLQPEDFATYYCQQYNWYPFTFGQGTKLEIK
B2: huAb13v6 (antibody, V domains shown)
VH: B1 VH
VL: B1 VL with Y87F
B3: huAb3v2.3 (antibody, V domains shown)
VH: EVQLVQSGAEVKKPGSSVKVSCKASGYTFSSYWMHWVRQAPGQGLEWIGLIHPWSGSTNYNEMFKNRATLTVDRSTSTAYMELSSLRSEDTAVYYCAGGGRLYFDYWGQGTTVTVSS
VL: DIVMTQSPLSLPVTPGEPASISCRSSQSLVHSNQDTYLRWYLQKPGQSPQLLIYKVSNRFSGVPDRFSGSGSGTDFTLKISRVEAEDVGVYYCSQSTHVPYTFGGGTKVEIK
B4: huAb3v2.8 (antibody, V domains shown)
VH: B3 VH with W54I
VL: B3 VL with Q34R
B5: huAb3v2.6 (antibody, human IgG1, kappa, L234A L235A, V domains shown)
VH: B3 VH with W54E
VL: DIVMTQSPLSLPVTPGEPASISCRSSQSLVHSNQDTYLRWYLQKPGQSPQLLIYKVSNRFSGVPDRFSGSGSGTDFTLKISRVEAEDVGVYYCSQSTHVPYTFGGGTKVEIKR
notes: Ig gamma-1 mutant / kappa
B6: huAb3v2.9 (antibody, V domains shown)
VH: B3 VH with W54I
VL: B3 VL
B7: chAb13 (antibody, IgG1, V domains shown)
VH: DVQLQESGPDLVKPSQSLSLTCTVTGYSITSGYSWHWIRQFPGNKLEWMGYIHSSGSTNYNPSLKSRISINRDTSKNQFFLQLNSVTTEDTATYYCAGYDDYFEYWGQGTTLTVSS
VL: DIVMTQSQKFMSTSVGDRVSVTCKASQNVGFNVAWYQQKPGQSPKALIYSASYRYSGVPDRFTGSGSGTDFTLTISNVQSEDLAEYFCQQYNSYPFTFGSGTKLEIK
notes: chimeric, huIgG1/k
B8: huAb13v1 (antibody, human IgG1, kappa, L234A L235A, V domains shown)
VH: B1 VH
VL: DIQMTQSPSSLSASVGDRVTITCKASQNVGFNVAWYQQKPGKSPKALIYSASYRYSGVPSRFSGSGSGTDFTLTISSLQPEDFAEYFCQQYNWYPFTFGQGTKLEIKR
notes: Ig gamma-1 mutant / kappa

One assay deals with T1, hB7-H3 (ELISA antigen of Tables 17 and …). The assay can be described thus: ELISA. A general note: ELISA stands for enzyme-linked immunosorbent assay.
B1: the midpoint of the response, the EC50, lay at 0.19 nM.
Take B2: the EC50 (usually the concentration at which the effect is half-maximal) came out at 0.14 nM.

A further assay concerns the target T3, Cynomolgous B7-H3 on cells (cynomolgus).
T3 construct: whole, on cells; also called cyno B7-H3; cyB7-H3
The experiment in a line: FACS, 3T12 transfectants. Background: In flow cytometry, cells or beads pass a laser one at a time.
On to B3, for which the 50% effective concentration (EC50) came out at 4.03 nM.
On the same count and under the same terms, the same measure for B4: 3.01 nM; for B5: 3.31 nM; for B6: 4.64 nM.

In another assay the target is T2, Human full length B7-H3. The experiment in a line: FACS, 3T12 transfectants.
For B3, it took 6.5 nM to reach a half-maximal effect (EC50).
Still for that read-out and setting: the result for B4 reads 3.94 nM.
B5: the EC50 amounted to 5.64 nM.
The same measure, in the same setting: the same measure for B6: 6.16 nM.

A further assay has as its target T1, hB7-H3 (ELISA antigen of Tables 17 and …). The experiment in a line: ELISA; ELISA, human B7-H3; no DAR given, so unconjugated.
In turn, B7 had an EC50 of 0.26 nM.

For the next assay the target is unchanged. The assay can be described thus: ELISA. The source holds these as a separate data set.
Molecule B3 came in with an EC50 of 0.11 nM.
On the same count and under the same terms, the same measure for B4: 0.14 nM; for B5: 0.09 nM; for B6: 0.16 nM.

In the next assay the target is T3, Cynomolgous B7-H3 on cells. The experiment in a line: FACS. As to the method:
(§1) Cells were harvested from flasks when approximately 80% confluent using Gibco® Cell Dissociation Buffer. Cells were washed once in PBS/1% FBS (FACS buffer) then resuspended at 2.5×10⁶ cells/mL in FACS buffer. 100 μL of cells/well were added to a round bottom 96-well plate. 10 μL of a 10× concentration of mAb/ADC (final concentrations are indicated the figures). Wells were washed twice with FACS buffer and resuspended in 50 μL of secondary Ab (AlexaFluor 488) diluted in FACS buffer. The plate was incubated at 4° C. for one hour and washed twice with FACS buffer. Cells were resuspended in 100 μL of PBS/1% formaldehyde and analyzed on a Becton Dickinson LSRII flow cytometer. Data was analyzed using WinList flow cytometry analysis software.
(§2) Nine huAb13 variants described in Examples 17 and 18 were generated and tested for binding to B7-H3 by FACS (according to methods described in Example 6).
The molecule B8 had a 50% effective concentration (EC50) of 10 nM. That is a double-digit nanomolar value.
Same read-out and setting: the same measure for B1: 10.6 nM; for B2: 12.9 nM.
The same measure, in the same setting: the result for B7 reads 18.4 nM.

Another assay has as its target T2, Human full length B7-H3. The experiment in a line: FACS. On the procedure:
as §1, §2
Consider B1, for which the EC50 was found to be 5.21 nM.
With B2, the EC50 came to 5.83 nM.
The same measure, in the same setting: the result for B7 reads 6.27 nM.
